Laboratory results reported in the RNAGym collection of RNA variant scans (doi:10.1093/nar/gkz1192).

B1: CPEB3 Ribozyme (parent)
chain: UAACAGGGGGCCACAGCAGAAGCGUUCACGUCGCAGCCCCUGUCAGAUUCUGGUGAAUCUGCGAAUUCUGCUGUAUAUCUC

Variants of: B1
Experiment: self-cleavage, relative activity (ratio to wild type); higher = more cleavage; in vitro, sequencing
Summary of the method: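 Barcoded CPEB3 ribozyme mutants, produced by rounds of error-prone PCR, self-cleaved while being transcribed with T7 RNA polymerase for 5 hours at 37°C and during a subsequent 15 min DNase I step before EDTA was added. Sequencing of template-switched cDNA on Illumina gave cleaved and total reads, and DNA sequencing assigned barcodes to variants. Each variant's relative activity is its cleaved/total read fraction divided by the unmutated ribozyme's fraction, averaged across three batches. A variant needed a minimum of 5 reads.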

First: G8C A28G
Second: G8U G9A
The self-cleavage of the first is lower: 0.22 for the first, 0.33 for the second.

First: G8C U60C
Second: G8C U60A
The self-cleavage of the first is higher: 0.24 for the first, 0.14 for the second.

Going from G8A C37A to G8A C37U, the self-cleavage falls from 0.15 to 0.05.

Compared with G8A G30A, G8A G30U is lower in self-cleavage: 0.4 for the first, 0.16 for the second.

First: G8A G52A
Second: G9A A75G
The self-cleavage of the first is lower: 0.3 for the first, 0.31 for the second.

First: G8U A77U
Second: G7U U78A
The self-cleavage of the first is lower: 0.14 for the first, 0.48 for the second.

Going from G7U U78C to G8U G52U, the self-cleavage rises from 0.13 to 0.21.

Going from G8U G52A to G8A C29U, the self-cleavage rises from 0.21 to 0.24.

G8C U58C and G8A C39A are the same in self-cleavage: 0.21 for the first, 0.21 for the second.

Going from G8A C39G to G8U C71G, the self-cleavage rises from 0.06 to 0.07.

First: G8A U49A
Second: G8A U49C
The self-cleavage of the first is higher: 0.25 for the first, 0.2 for the second.

First: G9A G10C
Second: G9A G10A
The self-cleavage of the first is lower: 0.2 for the first, 0.45 for the second.

G8A and G8C are the same in self-cleavage: 0.27 for the first, 0.27 for the second.

Compared with G8U, G8U U67A is lower in self-cleavage: 0.23 for the first, 0.19 for the second.

Compared with G8U U67C, G8U G22A is lower in self-cleavage: 0.23 for the first, 0.12 for the second.

Going from G9A U31C to G9A U31A, the self-cleavage falls from 0.29 to 0.16.

Compared with G8U U41G, G8U U41A is lower in self-cleavage: 0.39 for the first, 0.19 for the second.

First: G8U U41C
Second: G9A C17G
The self-cleavage of the first is higher: 0.12 for the first, 0.1 for the second.

Going from G9A C17U to G9A C23U, the self-cleavage falls from 0.23 to 0.07.

Compared with G8U C12U, G8A A75U is lower in self-cleavage: 0.3 for the first, 0.24 for the second.

Compared with G8A A75G, G8U G36A is lower in self-cleavage: 0.21 for the first, 0.1 for the second.

Going from G8A U41A to G8A U41C, the self-cleavage rises from 0.07 to 0.32.

Going from G8A U76A to G8U C37U, the self-cleavage falls from 0.49 to 0.17.

First: G8A U26C
Second: G8A U26A
The self-cleavage of the first is lower: 0.13 for the first, 0.19 for the second.

First: G8C G36C
Second: G9A A13U
The self-cleavage of the first is lower: 0.15 for the first, 0.28 for the second.

First: G9A A13G
Second: G9A A45U
The self-cleavage of the first is higher: 0.3 for the first, 0.21 for the second.

First: G9A A45G
Second: G9A G73A
The self-cleavage of the first is lower: 0.39 for the first, 0.47 for the second.

First: G8C C27A
Second: G8A A45U
The self-cleavage of the first is higher: 0.19 for the first, 0.06 for the second.

First: G8A A45G
Second: G9A G46A
The self-cleavage of the first is higher: 0.29 for the first, 0.13 for the second.

Going from G8A A64U to G8A A64G, the self-cleavage falls from 0.27 to 0.22.

First: G8A A15U
Second: G8A A15G
The self-cleavage of the first is lower: 0.16 for the first, 0.3 for the second.

Compared with G8A A15C, G9A A64C is lower in self-cleavage: 0.31 for the first, 0.06 for the second.

Going from G9A A64G to G9A A64U, the self-cleavage rises from 0.3 to 0.39.

G8C U67C and G8C U67G are the same in self-cleavage: 0.15 for the first, 0.15 for the second.

G8A A56G and G8A A56C are the same in self-cleavage: 0.24 for the first, 0.24 for the second.

Going from G8A A56U to G8A G42A, the self-cleavage falls from 0.38 to 0.1.

Going from G8A C17U to G8U G63A, the self-cleavage falls from 0.25 to 0.07.

Compared with G8U C39U, G8U A75G is higher in self-cleavage: 0.08 for the first, 0.12 for the second.

Going from G8U A75U to G9A C38A, the self-cleavage falls from 0.35 to 0.25.

First: G8U U25C
Second: G7U U80C
The self-cleavage of the first is lower: 0.12 for the first, 0.27 for the second.

Going from G9A G53A to G8A G55A, the self-cleavage falls from 0.35 to 0.06.

Compared with G8A G33U, G8A U25C is higher in self-cleavage: 0.07 for the first, 0.26 for the second.

Compared with G8A U25A, G9A U51A is higher in self-cleavage: 0.05 for the first, 0.27 for the second.

First: G8A A47G
Second: G8A A47U
The self-cleavage of the first is higher: 0.23 for the first, 0.2 for the second.

Compared with G8U A13G, G8U A13U is higher in self-cleavage: 0.28 for the first, 0.3 for the second.

G8C G33A and G9A A47U are the same in self-cleavage: 0.06 for the first, 0.06 for the second.

Going from G9A A47G to G8C U80G, the self-cleavage falls from 0.37 to 0.24.

First: G9A U41G
Second: G9A U41C
The self-cleavage of the first is lower: 0.26 for the first, 0.43 for the second.

Going from G9A U41A to G8A U66C, the self-cleavage falls from 0.19 to 0.12.

First: G9A A77G
Second: G9A A77U
The self-cleavage of the first is higher: 0.3 for the first, 0.23 for the second.

First: G9A A77C
Second: G8A C12G
The self-cleavage of the first is higher: 0.17 for the first, 0.09 for the second.

First: G8U G19C
Second: G8C U51A
The self-cleavage of the first is higher: 0.23 for the first, 0.12 for the second.

First: G8A U78A
Second: G8A U78C
The self-cleavage of the first is higher: 0.37 for the first, 0.35 for the second.

Going from G8A A65G to G8A A65U, the self-cleavage falls from 0.14 to 0.06.

First: G9A A65U
Second: G9A A65G
The self-cleavage of the first is lower: 0.17 for the first, 0.22 for the second.

Going from G8U U74G to G8U U74A, the self-cleavage rises from 0.17 to 0.41.

Compared with G8A U48G, G8A U48C is lower in self-cleavage: 0.37 for the first, 0.15 for the second.

First: G8A U48A
Second: G8A A28G
The self-cleavage of the first is higher: 0.27 for the first, 0.23 for the second.

First: G8A A28U
Second: G9A U49C
The self-cleavage of the first is lower: 0.14 for the first, 0.23 for the second.

Compared with G9A U49A, G8U A65U is higher in self-cleavage: 0.19 for the first, 0.43 for the second.

Going from G8U A65G to G8C C40U, the self-cleavage falls from 0.34 to 0.13.

Going from G8C U78C to G7U U74A, the self-cleavage rises from 0.07 to 0.22.

Compared with G7U U74C, G8A C62A is lower in self-cleavage: 0.46 for the first, 0.07 for the second.

Compared with G8A C62U, G9A C37U is lower in self-cleavage: 0.22 for the first, 0.15 for the second.

Compared with G8U A20G, G9A C68U is higher in self-cleavage: 0.17 for the first, 0.27 for the second.

Compared with G9A U26C, G9A U26A is higher in self-cleavage: 0.21 for the first, 0.29 for the second.

Compared with G9A U26G, G9A A20C is higher in self-cleavage: 0.07 for the first, 0.39 for the second.

First: G9A A20G
Second: G9A A20U
The self-cleavage of the first is lower: 0.37 for the first, 0.43 for the second.

Compared with G8C A21G, G8C U25C is higher in self-cleavage: 0.06 for the first, 0.15 for the second.

First: G9A G52A
Second: G9A G52C
The self-cleavage of the first is higher: 0.24 for the first, 0.13 for the second.

Going from G9A C27A to G9A A18G, the self-cleavage rises from 0.04 to 0.21.

Going from G9A A18U to G8U G33A, the self-cleavage falls from 0.14 to 0.08.

Compared with G8U G33U, G8A C38U is lower in self-cleavage: 0.1 for the first, 0.08 for the second.

Compared with G8C G52A, G9A G30A is lower in self-cleavage: 0.31 for the first, 0.18 for the second.

Going from G9A G30U to G8A A13U, the self-cleavage rises from 0.06 to 0.3.

First: G8A A13G
Second: G8A A35C
The self-cleavage of the first is higher: 0.44 for the first, 0.21 for the second.

First: G8A A35U
Second: G8A A35G
The self-cleavage of the first is lower: 0.14 for the first, 0.5 for the second.

Going from G9A U25C to G9A U25A, the self-cleavage falls from 0.21 to 0.2.

Compared with G8C U54C, G8U A47G is lower in self-cleavage: 0.44 for the first, 0.13 for the second.

First: G8C A57G
Second: G8A C50U
The self-cleavage of the first is higher: 0.52 for the first, 0.12 for the second.

First: G8U C32U
Second: G8U G46U
The self-cleavage of the first is lower: 0.14 for the first, 0.19 for the second.

Going from G8A U74A to G8A U74C, the self-cleavage rises from 0.25 to 0.35.

Going from G8C A13U to G8A C32A, the self-cleavage rises from 0.16 to 0.2.

For G8U C62U, the self-cleavage was 0.12.
